Results reported in PMC3386925.

Target: calcitonin receptor (bovine (endogenous in bovine articular cartilage explants))

## salmon calcitonin (peptide)
  share of CTR-positive cells (immunohistochemistry) in the deep layer of T3-induced explants after four days of co-stimulation with 1 nM and 10 nM sCT: < 43%
